Earlier results on two substances are cited in paper PMC10423694.

As usually defined, the Kd is the equilibrium constant for the complex coming apart.

Data set [1] concerns the target K48-diUb (Homo sapiens) (UniProt P0CG47). Put plainly: SPR. A general note: In SPR one partner is held on a chip, and binding of the other changes the refractive index at the surface.
The target of data set [2] is K63-diUb (Homo sapiens) (UniProt P0CG47). Put plainly: SPR.
The target in data set [3] is M1-diUb (Homo sapiens) (UniProt P0CG47). Put plainly: SPR.
Data set [4] concerns the target ubiquitin monomer (Homo sapiens) (UniProt P0CG47). Put plainly: SPR.
The target in data set [5] is ubiquitin (Homo sapiens) (UniProt P0CG47).

NEMO, sequence (Q9Y6K9 whole entry): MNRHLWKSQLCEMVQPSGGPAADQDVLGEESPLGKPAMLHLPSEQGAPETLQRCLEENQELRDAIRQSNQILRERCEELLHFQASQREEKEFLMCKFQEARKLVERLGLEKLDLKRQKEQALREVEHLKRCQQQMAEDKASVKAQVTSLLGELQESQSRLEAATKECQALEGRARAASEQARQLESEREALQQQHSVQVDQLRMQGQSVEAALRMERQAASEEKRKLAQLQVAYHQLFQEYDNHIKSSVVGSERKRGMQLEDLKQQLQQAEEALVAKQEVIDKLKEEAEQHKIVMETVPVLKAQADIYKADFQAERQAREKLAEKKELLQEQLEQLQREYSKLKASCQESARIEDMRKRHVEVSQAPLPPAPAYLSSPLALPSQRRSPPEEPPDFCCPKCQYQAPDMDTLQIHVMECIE
UBQLN2 UBA, sequence (Q9UHD9 578-624): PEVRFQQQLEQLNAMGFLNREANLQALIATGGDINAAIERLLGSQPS

Regarding NEMO (from UniProt Q9Y6K9), the Kd is 169 µM in data set [1], 140 µM in data set [2], 4.5 µM in data set [3] and 152 µM in data set [4].
As for UBQLN2 UBA (from UniProt Q9UHD9), in data set [5], the Kd is 8 µM.
